Experimental data taken from publication PMC8390553, “The DNA-binding protein CST associates with the cohesin complex and promotes chromosome cohesion” (The Journal of Biological Chemistry, 2021).
Each block holds one binder with its values, some of them ahead of it.

Biological target: T1, STN1, endogenous (HeLa) (human (endogenous in HeLa), UniProt Q9H668 1-368)
T1 construct: STN1 (OBFC1), subunit of the CST complex, endogenous; also called OBFC1; source: endogenous, in fixed HeLa 1.2.11 cells
T1 sequence (looked up): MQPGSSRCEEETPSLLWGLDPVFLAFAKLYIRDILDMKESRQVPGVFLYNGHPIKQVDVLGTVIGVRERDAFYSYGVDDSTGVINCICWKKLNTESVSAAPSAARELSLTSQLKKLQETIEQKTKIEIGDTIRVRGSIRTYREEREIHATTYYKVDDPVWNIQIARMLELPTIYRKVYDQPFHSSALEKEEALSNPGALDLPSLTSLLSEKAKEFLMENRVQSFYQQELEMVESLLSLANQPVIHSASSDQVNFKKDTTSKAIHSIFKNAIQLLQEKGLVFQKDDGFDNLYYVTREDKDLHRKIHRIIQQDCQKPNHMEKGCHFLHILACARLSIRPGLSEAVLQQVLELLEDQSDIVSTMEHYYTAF
Test: proximity ligation; fixed HeLa 1.2.11 cells, Duolink PLA kit, antibodies to the endogenous proteins (mouse α-STN1 with rabbit α-SMC3, α-PolA1 or α-MCM7); untreated cells, and for STN1 with SMC3 also after HU (2 mM, 2 h), APH (1 μM, 2 h) or CPT (1 μM, 1 h)
Details: partners not purified

- PLA foci per cell (average): 2.5 foci per cell
B1: PolA1, subunit of DNA polymerase α-primase, endogenous (HeLa) (natural protein, human (endogenous in HeLa), UniProt P09884 1-1462, looked up)
chain: MAPVHGDDSLSDSGSFVSSRARREKKSKKGRQEALERLKKAKAGEKYKYEVEDFTGVYEEVDEEQYSKLVQARQDDDWIVDDDGIGYVEDGREIFDDDLEDDALDADEKGKDGKARNKDKRNVKKLAVTKPNNIKSMFIACAGKKTADKAVDLSKDGLLGDILQDLNTETPQITPPPVMILKKKRSIGASPNPFSVHTATAVPSGKIASPVSRKEPPLTPVPLKRAEFAGDDVQVESTEEEQESGAMEFEDGDFDEPMEVEEVDLEPMAAKAWDKESEPAEEVKQEADSGKGTVSYLGSFLPDVSCWDIDQEGDSSFSVQEVQVDSSHLPLVKGADEEQVFHFYWLDAYEDQYNQPGVVFLFGKVWIESAETHVSCCVMVKNIERTLYFLPREMKIDLNTGKETGTPISMKDVYEEFDEKIATKYKIMKFKSKPVEKNYAFEIPDVPEKSEYLEVKYSAEMPQLPQDLKGETFSHVFGTNTSSLELFLMNRKIKGPCWLEVKSPQLLNQPVSWCKVEAMALKPDLVNVIKDVSPPPLVVMAFSMKTMQNAKNHQNEIIAMAALVHHSFALDKAAPKPPFQSHFCVVSKPKDCIFPYAFKEVIEKKNVKVEVAATERTLLGFFLAKVHKIDPDIIVGHNIYGFELEVLLQRINVCKAPHWSKIGRLKRSNMPKLGGRSGFGERNATCGRMICDVEISAKELIRCKSYHLSELVQQILKTERVVIPMENIQNMYSESSQLLYLLEHTWKDAKFILQIMCELNVLPLALQITNIAGNIMSRTLMGGRSERNEFLLLHAFYENNYIVPDKQIFRKPQQKLGDEDEEIDGDTNKYKKGRKKAAYAGGLVLDPKVGFYDKFILLLDFNSLYPSIIQEFNICFTTVQRVASEAQKVTEDGEQEQIPELPDPSLEMGILPREIRKLVERRKQVKQLMKQQDLNPDLILQYDIRQKALKLTANSMYGCLGFSYSRFYAKPLAALVTYKGREILMHTKEMVQKMNLEVIYGDTDSIMINTNSTNLEEVFKLGNKVKSEVNKLYKLLEIDIDGVFKSLLLLKKKKYAALVVEPTSDGNYVTKQELKGLDIVRRDWCDLAKDTGNFVIGQILSDQSRDTIVENIQKRLIEIGENVLNGSVPVSQFEINKALTKDPQDYPDKKSLPHVHVALWINSQGGRKVKAGDTVSYVICQDGSNLTASQRAYAPEQLQKQDNLTIDTQYYLAQQIHPVVARICEPIDGIDAVLIATWLGLDPTQFRVHHYHKDEENDALLGGPAQLTDEEKYRDCERFKCPCPTCGTENIYDNVFDGSGTDMEPSLYRCSNIDCKASPLTFTVQLSNKLIMDIRRFIKKYYDGWLICEEPTCRNRTRHLPLQFSRTGPLCPACMKATLQPEYSDKSLYTQLCFYRYIFDAECALEKLTTDHEKDKLKKQFFTPKVLQDYRKLKNTAEQFLSRSGYSEVNLSKLFAGCAVKS
notes: PolA1, subunit of DNA polymerase α-primase, endogenous; the subunit to which the PLA antibody was directed; The results name the partner as the complex DNA polymerase α-primase; the antibody of the PLA was against PolA1; source: endogenous, in fixed HeLa 1.2.11 cells

- PLA foci per cell (average): ~6 foci per cell
- fold increase in PLA foci after HU, APH or CPT against untreated cells: ~2 fold
B2: SMC3, endogenous (HeLa) (natural protein, human (endogenous in HeLa), UniProt Q9UQE7 1-1217, looked up)
chain: MYIKQVIIQGFRSYRDQTIVDPFSSKHNVIVGRNGSGKSNFFYAIQFVLSDEFSHLRPEQRLALLHEGTGPRVISAFVEIIFDNSDNRLPIDKEEVSLRRVIGAKKDQYFLDKKMVTKNDVMNLLESAGFSRSNPYYIVKQGKINQMATAPDSQRLKLLREVAGTRVYDERKEESISLMKETEGKREKINELLKYIEERLHTLEEEKEELAQYQKWDKMRRALEYTIYNQELNETRAKLDELSAKRETSGEKSRQLRDAQQDARDKMEDIERQVRELKTKISAMKEEKEQLSAERQEQIKQRTKLELKAKDLQDELAGNSEQRKRLLKERQKLLEKIEEKQKELAETEPKFNSVKEKEERGIARLAQATQERTDLYAKQGRGSQFTSKEERDKWIKKELKSLDQAINDKKRQIAAIHKDLEDTEANKEKNLEQYNKLDQDLNEVKARVEELDRKYYEVKNKKDELQSERNYLWREENAEQQALAAKREDLEKKQQLLRAATGKAILNGIDSINKVLDHFRRKGINQHVQNGYHGIVMNNFECEPAFYTCVEVTAGNRLFYHIVDSDEVSTKILMEFNKMNLPGEVTFLPLNKLDVRDTAYPETNDAIPMISKLRYNPRFDKAFKHVFGKTLICRSMEVSTQLARAFTMDCITLEGDQVSHRGALTGGYYDTRKSRLELQKDVRKAEEELGELEAKLNENLRRNIERINNEIDQLMNQMQQIETQQRKFKASRDSILSEMKMLKEKRQQSEKTFMPKQRSLQSLEASLHAMESTRESLKAELGTDLLSQLSLEDQKRVDALNDEIRQLQQENRQLLNERIKLEGIITRVETYLNENLRKRLDQVEQELNELRETEGGTVLTATTSELEAINKRVKDTMARSEDLDNSIDKTEAGIKELQKSMERWKNMEKEHMDAINHDTKELEKMTNRQGMLLKKKEECMKKIRELGSLPQEAFEKYQTLSLKQLFRKLEQCNTELKKYSHVNKKALDQFVNFSEQKEKLIKRQEELDRGYKSIMELMNVLELRKYEAIQLTFKQVSKNFSEVFQKLVPGGKATLVMKKGDVEGSQSQDEGEGSGESERGSGSQSSVPSVDQFTGVGIRVSFTGKQGEMREMQQLSGGQKSLVALALIFAIQKCDPAPFYLFDEIDQALDAQHRKAVSDMIMELAVHAQFITTTFRPELLESADKFYGVKFRNKVSHIDVITAEMAKDFVEDDTTHG
notes: SMC3, core subunit of the cohesin complex, endogenous; also called cohesin subunit; source: endogenous, in fixed HeLa 1.2.11 cells
